According to FireProtDB (doi:10.1016/j.jmb.2009.05.011):
Values joined by “and” are separate entries in the source; they are usually repeats but may differ in a detail not shown here. Equal values may be shown once.

B1: Dihydrolipoyllysine-residue succinyltransferase component of 2-oxoglutarate dehydrogenase complex, P0AFG6 (parent)
chain: MSSVDILVPDLPESVADATVATWHKKPGDAVVRDEVLVEIETDKVVLEVPASADGILDAVLEDEGTTVTSRQILGRLREGNSAGKETSAKSEEKASTPAQRQQASLEEQNNDALSPAIRRLLAEHNLDASAIKGTGVGGRLTREDVEKHLAKAPAKESAPAAAAPAAQPALAARSEKRVPMTRLRKRVAERLLEAKNSTAMLTTFNEVNMKPIMDLRKQYGEAFEKRHGIRLGFMSFYVKAVVEALKRYPEVNASIDGDDVVYHNYFDVSMAVSTPRGLVTPVLRDVDTLGMADIEKKIKELAVKGRDGKLTVEDLTGGNFTITNGGVFGSLMSTPIINPPQSAILGMHAIKDRPMAVNGQVEILPMMYLALSYDHRLIDGRESVGFLVTIKELLEDPTRLLLDV

Variants of: B1
Details: Escherichia coli (strain K12), pH 7, structure 1W4H, whole UniProt chain shown
[1] = 10 °C, GdnHCl, Fluorescence, 3-[morpholino]propanesulfonic acid 50 mM, NaCl 200 mM
[2] = Thermal, CD, Potassium phosphate 50 mM, KCl 200 mM
[3] = 10 °C, GdnHCl, CD, 3-[morpholino]propanesulfonic acid 50 mM, NaCl 200 mM

| Variant | denaturant m value [1] | Tm [2] | ddG of mutation (higher = less stable) [2] | unfolding enthalpy (van 't Hoff) [2] | ddG of mutation (higher = less stable) [3] | denaturant m value [3] | denaturant midpoint (higher = more stable) [3] | unfolding free energy [3] | unfolding free energy [1] |
| --- | --- | --- | --- | --- | --- | --- | --- | --- | --- |
| D145N | 0.17 kcal/mol/M | 13.8 °C | 3.1 kcal/mol | 5 kcal/mol |  |  |  |  |  |
| H149A |  | 55 °C | -0.06 kcal/mol | 22 kcal/mol |  |  |  |  |  |
| H149G | 0.45 kcal/mol/M and 0.21 kcal/mol/M | 33.9 °C | 1.58 kcal/mol | 8 kcal/mol | 1.87 kcal/mol | 0.64 kcal/mol/M | 1.25 M | 0.8 kcal/mol | 0.93 kcal/mol |
| T142S | 0.53 kcal/mol/M and 0.2 kcal/mol/M |  |  |  |  |  |  |  | 1.45 kcal/mol |
| A151G |  | 53.2 °C | 0.07 kcal/mol | 21 kcal/mol |  |  |  |  |  |
| A117G |  | 49.4 °C | 0.37 kcal/mol | 23 kcal/mol |  |  |  |  |  |
| H125W |  | 54.1 °C |  | 25 kcal/mol |  | 0.7 kcal/mol/M | 3.96 M | 2.77 kcal/mol | 2.55 kcal/mol |
| S115G | 0.21 kcal/mol/M | 53.6 °C | 0.47 kcal/mol | 21 kcal/mol | 0.57 kcal/mol | 0.7 kcal/mol/M | 3.05 M | 2.14 kcal/mol | 2.31 kcal/mol |
| T135S |  | 50.4 °C | 0.29 kcal/mol | 21 kcal/mol |  |  |  |  |  |
| T135A |  | 36.4 °C | 1.36 kcal/mol | 9 kcal/mol | 1.68 kcal/mol | 0.69 kcal/mol/M | 1.51 M | 1.04 kcal/mol | 0.78 kcal/mol |
| V146A | 0.48 kcal/mol/M and 0.16 kcal/mol/M | 27.9 °C | 2.02 kcal/mol | 9 kcal/mol |  |  |  |  | 0.47 kcal/mol |
| A131G | 0.43 kcal/mol/M and 0.28 kcal/mol/M | 48.5 °C | 0.43 kcal/mol | 21 kcal/mol | 0.52 kcal/mol | 0.71 kcal/mol/M | 3.12 M | 2.22 kcal/mol | 2.44 kcal/mol |
| L141A | 0.48 kcal/mol/M | 26.4 °C | 2.12 kcal/mol | 10 kcal/mol |  |  |  |  | 0.46 kcal/mol |
| P116A |  | 59.1 °C | -0.38 kcal/mol | 24 kcal/mol |  |  |  |  |  |
| A123G | 0.42 kcal/mol/M and 0.23 kcal/mol/M | 40.8 °C | 1.02 kcal/mol | 20 kcal/mol | 0.93 kcal/mol | 0.72 kcal/mol/M | 2.55 M | 1.84 kcal/mol | 1.81 kcal/mol |
| I118V |  | 53.8 °C | 0.03 kcal/mol | 26 kcal/mol |  |  |  |  |  |
| I118A | 0.46 kcal/mol/M and 0.2 kcal/mol/M |  |  |  | 1.24 kcal/mol | 0.65 kcal/mol/M | 2.09 M | 1.36 kcal/mol | 1.18 kcal/mol |
| L121A | 0.46 kcal/mol/M and 0.16 kcal/mol/M | 32.2 °C | 1.67 kcal/mol | 16 kcal/mol | 1.6 kcal/mol | 0.64 kcal/mol/M | 1.63 M | 1.04 kcal/mol | 0.9 kcal/mol |
| L114W |  |  |  |  |  | 0.67 kcal/mol/M | 3.15 M | 2.11 kcal/mol | 2.22 kcal/mol |
| I132V | 0.47 kcal/mol/M | 44.4 °C | 0.75 kcal/mol | 22 kcal/mol | 0.7 kcal/mol | 0.73 kcal/mol/M | 2.88 M | 2.1 kcal/mol |  |
| A113G |  | 53.6 °C | 0.04 kcal/mol | 23 kcal/mol |  |  |  |  |  |
